Consider six molecules from patent publication US6403769 (US Dept. of Health and Human Services, dated 2002).

For experiment [1], the target named is T1, D2/3-HFc fusion protein (mouse, UniProt P21803 22-262; P01868 98-324 = IgG part, limits assumed).
T1 construct: domain: Ig-like effector domains D2 and D3;domain: hinge, CH2 and CH3 domains; Secreted by NIH 3T3 transfectants as a disulfide-linked dimer (80 kd reduced, 160 kd nonreduced); Cloned into HFc-pUC 18 without the heterologous signal peptide; also called KGFR-HFc (D2/3)
As to the kind of experiment: 50% displacement of 125I-KGF by unlabeled KGF, fusion protein captured on Gamma Bind G (Scatchard analysis). On the procedure: (§1) Ey et al., Immunochem. 15: 429 (1978). […] Bovine brain aFGF was obtained from Upstate Biotechnology, Inc. (Lake Placid, N.Y.). ^125I-aFGF was prepared as described by Friesel et al., J. Biol. Chem. 261: 7581 (1986).
(§2) Bound ligand recovered from the pellets was counted in a Beckman gamma counter. Specific binding was defined as the difference between binding in the absence or presence of excess unlabeled ligand.
The dissociation constant for each fusion protein was determined by measuring the concentrations of unlabeled ligand required for 50% displacement of radiolabeled ligand.

In experiment [2] the target is T2, immunoglobulin HFc (mouse, UniProt P01868 98-324 = IgG part).
T2 construct: domain: hinge, CH2 and CH3 domains; Control without a nonantibody portion; also called the HFc portion of IgG; control immunoglobulin HFc
As to the kind of experiment: immunohistochemistry on normal human skin.

Experiment [3] addresses S. aureus protein A Sepharose CL-4B (S. aureus, UniProt P38507 37-477). As to the kind of experiment: precipitation of 35S-labeled conditioned medium. The method, then:
Cells were incubated in the presence of radiolabeled amino acids to examine the expression of the fusion proteins. […] The immunoprecipitated proteins were then analyzed by SDS-polyacrylamide gel electrophoresis (PAGE) and immunoprecipitated species were visualized after fluorography.
Isolated proteins were analyzed using SDS-PAGE.

The next experiment has as its target T3, D2-HFc fusion protein (mouse, UniProt P21803 22-156; P01868 98-324 = IgG part, limits assumed).
T3 construct: domain: Ig-like effector domain D2;domain: hinge, CH2 and CH3 domains; Disulfide-linked dimer (55 kd reduced, 110 kd nonreduced); also called KGFR-HFc (D2)
As to the kind of experiment: 50% displacement of 125I-aFGF by unlabeled aFGF, fusion protein captured on Gamma Bind G (Scatchard analysis). The method, then:
as §1, §2

Experiment [4] addresses T1, D2/3-HFc fusion protein. The experiment is described as above. The method, then: as §1, §2
The target of another experiment is T4, β PDGFR (UniProt P09619 33-1106, limits assumed).
T4 construct: also called β PDGF receptor
T4 sequence (P09619 33-1106 limits assumed): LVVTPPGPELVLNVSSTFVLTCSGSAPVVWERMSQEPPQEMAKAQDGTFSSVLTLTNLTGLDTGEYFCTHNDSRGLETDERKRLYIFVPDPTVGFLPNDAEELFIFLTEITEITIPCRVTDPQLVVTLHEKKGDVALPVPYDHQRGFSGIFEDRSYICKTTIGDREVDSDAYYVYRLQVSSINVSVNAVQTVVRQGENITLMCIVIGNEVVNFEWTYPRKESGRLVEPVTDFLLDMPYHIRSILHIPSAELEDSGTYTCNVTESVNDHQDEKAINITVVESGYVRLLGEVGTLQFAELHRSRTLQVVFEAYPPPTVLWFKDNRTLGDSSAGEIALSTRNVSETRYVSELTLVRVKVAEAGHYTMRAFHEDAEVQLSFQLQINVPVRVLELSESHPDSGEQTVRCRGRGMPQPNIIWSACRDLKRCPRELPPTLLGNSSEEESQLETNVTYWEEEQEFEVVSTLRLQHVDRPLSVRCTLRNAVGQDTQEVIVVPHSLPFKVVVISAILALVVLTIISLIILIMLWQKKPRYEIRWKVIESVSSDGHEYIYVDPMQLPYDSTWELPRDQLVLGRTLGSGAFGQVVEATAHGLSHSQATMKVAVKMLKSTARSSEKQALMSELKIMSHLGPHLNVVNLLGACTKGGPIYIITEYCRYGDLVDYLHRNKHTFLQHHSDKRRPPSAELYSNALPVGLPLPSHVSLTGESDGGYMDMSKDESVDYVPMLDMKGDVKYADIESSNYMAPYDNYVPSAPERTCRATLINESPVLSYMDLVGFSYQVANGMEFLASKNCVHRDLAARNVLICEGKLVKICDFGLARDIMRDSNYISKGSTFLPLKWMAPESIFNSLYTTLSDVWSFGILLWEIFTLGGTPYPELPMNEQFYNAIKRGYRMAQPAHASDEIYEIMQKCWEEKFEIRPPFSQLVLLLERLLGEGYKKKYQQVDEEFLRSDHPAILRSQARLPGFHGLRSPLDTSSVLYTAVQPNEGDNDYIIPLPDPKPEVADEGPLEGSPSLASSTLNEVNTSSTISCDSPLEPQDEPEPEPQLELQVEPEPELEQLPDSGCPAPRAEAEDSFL
As to the kind of experiment: Scatchard analysis.

The target in a further experiment is T5, α PDGFR (UniProt P16234 24-1089, limits assumed).
T5 construct: also called α PDGF receptor
T5 sequence (P16234 24-1089 limits assumed): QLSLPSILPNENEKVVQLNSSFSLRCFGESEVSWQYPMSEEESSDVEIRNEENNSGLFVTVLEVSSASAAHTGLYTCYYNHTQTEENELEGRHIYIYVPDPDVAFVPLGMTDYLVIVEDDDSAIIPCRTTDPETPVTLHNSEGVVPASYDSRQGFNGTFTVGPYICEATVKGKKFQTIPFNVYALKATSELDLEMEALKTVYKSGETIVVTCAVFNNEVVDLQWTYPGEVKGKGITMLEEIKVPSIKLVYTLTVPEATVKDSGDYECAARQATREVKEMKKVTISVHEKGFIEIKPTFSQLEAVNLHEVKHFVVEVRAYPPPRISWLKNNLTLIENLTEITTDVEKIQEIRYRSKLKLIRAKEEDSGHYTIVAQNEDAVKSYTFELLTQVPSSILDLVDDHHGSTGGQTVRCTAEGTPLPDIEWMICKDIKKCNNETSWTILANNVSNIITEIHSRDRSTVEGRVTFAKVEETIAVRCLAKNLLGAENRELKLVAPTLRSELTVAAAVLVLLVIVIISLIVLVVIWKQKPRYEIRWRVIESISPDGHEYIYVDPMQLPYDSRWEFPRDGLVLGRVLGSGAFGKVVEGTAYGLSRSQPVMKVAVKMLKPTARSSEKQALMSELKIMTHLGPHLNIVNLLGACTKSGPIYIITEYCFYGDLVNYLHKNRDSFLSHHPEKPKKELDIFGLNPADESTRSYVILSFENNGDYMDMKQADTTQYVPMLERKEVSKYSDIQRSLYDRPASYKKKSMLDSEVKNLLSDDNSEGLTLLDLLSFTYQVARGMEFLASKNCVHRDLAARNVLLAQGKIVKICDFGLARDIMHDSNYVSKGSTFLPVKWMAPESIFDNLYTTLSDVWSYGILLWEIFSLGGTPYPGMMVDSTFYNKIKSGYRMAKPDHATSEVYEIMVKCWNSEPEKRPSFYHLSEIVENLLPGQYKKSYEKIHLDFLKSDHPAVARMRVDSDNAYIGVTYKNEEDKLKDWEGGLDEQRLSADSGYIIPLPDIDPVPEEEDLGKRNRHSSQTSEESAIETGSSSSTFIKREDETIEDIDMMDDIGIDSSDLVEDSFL
As to the kind of experiment: Scatchard analysis.

The target of experiment [5] is T2, immunoglobulin HFc. As to the kind of experiment: ELISA-like assay, 10 ng PDGF BB immobilized. The method, then: After a two hour incubation, wells were washed, and alkaline phosphatase substrate was added to the wells in 100 mM sodium bicarbonate (pH 9.8)-1 mM magnesium chloride. After another incubation, the presence of the product of the chromogenic substrate was measured at 405 nm using an ELISA reader.

B1: keratinocyte growth factor (KGF) (ligand, human, UniProt P21781 32-194, looked up)
chain: CNDMTPEQMATNVNCSSPERHTRSYDYMEGGDIRVRRLFCRTQWYLRIDKRGKVKGTQEMKNNYNIMEIRTVAVGIVAIKGVESEFYLAMNKEGKLYAKKECNEDCNFKELILENHYNTYASAKWTHNGGEMFVALNQKGIPVRGKKTKKEQKTAHFLPMAIT
notes: also called recombinant human KGF; recombinant KGF
Regarding B1, in the experiment with D2/3-HFc fusion protein [1], binding was put at a Kd of 0.12 nM. Also, the binding result with immunoglobulin HFc [2] is given as “no binding”.

B2: KGF-HFc fusion protein (Fc fusion, UniProt P21781 32-194, looked up)
chain: CNDMTPEQMATNVNCSSPERHTRSYDYMEGGDIRVRRLFCRTQWYLRIDKRGKVKGTQEMKNNYNIMEIRTVAVGIVAIKGVESEFYLAMNKEGKLYAKKECNEDCNFKELILENHYNTYASAKWTHNGGEMFVALNQKGIPVRGKKTKKEQKTAHFLPMAITVPRDCGCKPCICTVPEVSSVFIFPPKPKDVLTITLTPKVTCVVVDISKDDPEVQFSWFVDDVEVHTAQTQPREEQFNSTFRSVSELPIMHQDWLNGKEFKCRVNSAAFPAPIEKTISKTKGRPKAPQVYTIPPPKEQMAKDKVSLTCMITDFFPEDITVEWQWNGQPAENYKNTQPIMNTNGSYFVYSKLNVQKSNWEAGNTFTCSVLHEGLHNHHTEKSLSHSPGK
notes: Disulfide-linked dimer, p94-98 nonreduced, 48 kd reduced
In the case of B2, the binding result in experiment [3] was “binds”.

B3: bovine brain aFGF (ligand, UniProt P03968 16-155, looked up)
chain: FNLPLGNYKKPKLLYCSNGGYFLRILPDGTVDGTKDRSDQHIQLQLCAESIGEVYIKSTETGQFLAMDTDGLLYGSQTPNEECLFLERLEENHYNTYISKKHAEKHWFVGLKKNGRSKLGPRTHFGQKAILFLPLPVSSD
notes: also called radioiodinated bovine fibroblast growth factor (aFGF); 125I-aFGF
Take B3: the dissociation constant (Kd) with D2-HFc fusion protein was 0.96 nM; with D2/3-HFc fusion protein [4], 0.52 nM.

B4: PDGF A-HFc fusion protein (Fc fusion)
chain: not shown
notes: Expressed as an 84-89 kd dimeric protein
As for B4, in the experiment with β PDGFR, the binding result is “no binding”. In addition, binding with α PDGFR was put at a Kd of 1.3 nM.

B5: PDGF B-HFc fusion protein (Fc fusion, UniProt P01127 82-190, looked up)
chain: SLGSLTIAEPAMIAECKTRTEVFEISRRLIDRTNANFLVWPPCVEVQRCSGCCNNRNVQCRPTQVQLRPVQVRKIEIVRKKPIFKKATVTLEDHLACKCETVAAARPVTVPRDCGCKPCICTVPEVSSVFIFPPKPKDVLTITLTPKVTCVVVDISKDDPEVQFSWFVDDVEVHTAQTQPREEQFNSTFRSVSELPIMHQDWLNGKEFKCRVNSAAFPAPIEKTISKTKGRPKAPQVYTIPPPKEQMAKDKVSLTCMITDFFPEDITVEWQWNGQPAENYKNTQPIMNTNGSYFVYSKLNVQKSNWEAGNTFTCSVLHEGLHNHHTEKSLSHSPGK
notes: Expressed as an 84 kd dimeric protein
Consider B5, for which the figures for the equilibrium dissociation constant (Kd) with β PDGFR and with α PDGFR were 1.4 nM and 3.2 nM, respectively.

B6: PDGF BB (ligand, UniProt P01127 82-190, looked up)
chain: SLGSLTIAEPAMIAECKTRTEVFEISRRLIDRTNANFLVWPPCVEVQRCSGCCNNRNVQCRPTQVQLRPVQVRKIEIVRKKPIFKKATVTLEDHLACKCETVAAARPVT
notes: also called PDGF BB protein
Take B6: in the experiment with immunoglobulin HFc [5], the binding result is reported as “no binding”.
